T1: recombinant human FAP (sFAP, FAP) versus CD26 and unrelated human antigens (A-N) (Homo sapiens, UniProt Q12884)
T1 sequence (Q12884 26-760 limits assumed): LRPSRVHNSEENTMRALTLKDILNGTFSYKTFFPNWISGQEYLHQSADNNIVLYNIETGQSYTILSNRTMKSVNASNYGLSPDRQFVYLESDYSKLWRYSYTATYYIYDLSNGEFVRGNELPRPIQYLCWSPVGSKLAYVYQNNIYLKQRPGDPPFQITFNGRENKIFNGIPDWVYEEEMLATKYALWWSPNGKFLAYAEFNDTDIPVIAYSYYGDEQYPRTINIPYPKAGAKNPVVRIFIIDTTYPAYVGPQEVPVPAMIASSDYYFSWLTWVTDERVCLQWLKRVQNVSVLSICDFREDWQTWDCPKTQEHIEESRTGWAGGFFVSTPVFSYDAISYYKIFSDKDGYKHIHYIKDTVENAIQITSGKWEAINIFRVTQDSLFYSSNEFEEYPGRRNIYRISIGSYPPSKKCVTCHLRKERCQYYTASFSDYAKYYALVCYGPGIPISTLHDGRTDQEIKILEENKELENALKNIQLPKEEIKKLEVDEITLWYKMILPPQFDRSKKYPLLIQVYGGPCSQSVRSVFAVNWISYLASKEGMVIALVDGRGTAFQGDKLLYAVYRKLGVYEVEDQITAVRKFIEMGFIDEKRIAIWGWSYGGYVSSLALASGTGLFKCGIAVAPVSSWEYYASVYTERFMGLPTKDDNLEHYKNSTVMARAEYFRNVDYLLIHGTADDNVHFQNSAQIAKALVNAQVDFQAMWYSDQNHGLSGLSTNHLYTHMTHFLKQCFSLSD

T2: rhFAP and FAP homologues (DPP4, DPP8, DPP9, POP/PREP) (Homo sapiens, UniProt Q12884)
T2 construct: purchased Sino Biologicals 10464-H07H
T2 sequence (Q12884 26-760 limits assumed): T1 sequence (Q12884 26-760 limits assumed)

B1: NI-206.6D3: human-derived recombinant anti-FAP antibody; VH SEQ ID NO: 49, VL SEQ ID NO: 51 (antibody, listed as Homo sapiens, V domains shown)
VH: EVQLVESGGGLVKPGESLRLSCAASGFTFSKAWMNWVRQGPGKGLEWVGRVKSKTDGGTTDYAAPVKGRFTISRDDSKDTVFLQMNSLKTEDTAVYYCSIQFIVVGDRGRDDQYMDVWGKGTTVTVSS
VL: SYVLTQPPSVSVSPGQTARITCSGDALPKQYAFWYQQKPGQAPVIMIYKDNQRPSGIPERFSGSSSGTTVTLTISGVQTEDEADYYCQSADSTNTHVVFGGGTKLTVL
B2: NI-206.18H2: human-derived recombinant anti-FAP antibody; VH SEQ ID NO: 41, VL SEQ ID NO: 43 (antibody, listed as Homo sapiens, V domains shown)
VH: QVQLQESGPRLVKPSETLSLTCTVSGYSISNGYYWGWIRQPPGQGLEWIASVWHSGNTYHNPSLKSRVTILVDTLKNQFSLNLKSVTAADTALYYCARSYTRNDVGAFETWGQGTMVTVSS
VL: SYELTQPPSVSVSPGQTARIACSGDELPKRYAYWYQQKSGQAPVLVMYEDTKRPSGIPERLSGSSSGTVTTLTISGAQVEDEADYYCYSTAPSGNHTFVFGTGTRVTVL
B3: NI-206.82C2: human-derived recombinant anti-FAP antibody; VH SEQ ID NO: 2 or 4 (PIMC), VL SEQ ID NO: 6 (antibody, V domains shown)
VH: QVQLQQSGPGLVKPSQTLSLTCAISGDSVSSNSVTWNWIRQSPSRGLEWLGRTYYRSKWYNDYAVSVKGRITINPDTSKNQFYLQLKSVTPEDAAVYYCARDSSILYGDYWGQGTLVTVSS
VL: QAVLTQPSSLSASPGASASLTCTLPSGINVGTYRIFWFQQKPGSPPQYLLSYKSDSDNHQGSGVPSRFSGSKDASANAGILLISGLQSEDEADYYCMIWHSSAWVFGGGTKLTVL

Legend:
[1] = system: directly coated FAP peptides mixture (cFAP); experiment: direct ELISA on coated mixture of FAP peptides; assay type: binding, human; conditions: peptides 378-392, 622-636, 721-736
Description: (§1) ELISA assays were performed with varying antibody concentrations to validate the binding of the exemplary antibodies of the present invention to FAP and to be able to determine their half maximal effective concentration (EC50). For the exemplary recombinant human NI-206-18H2, NI-206-20A8, NI-206-6D3, ‘NI-206-14C5, NI-206-34C11, NI-206.82C2, NI-206.59B4, NI-206.22F7, NI-206.27E8, NI-206.12G4 and NI-206.17A6 antibodies, 96-well microplates (Costar, Corning, USA) were coated with FAP, with a mixture of the 3 peptides or with BSA (Sigma-Aldrich, Buchs, Switzerland) diluted to a concentration of 5 μg/ml in carbonate ELISA coating buffer (15 mM Na2CO3, 35 mM NaHCO3, pH 9.4) for the direct ELISA. For the capture ELISA, the microplates were coated with mouse anti-His monoclonal antibody (Clontech) diluted to a concentration of 3 μg/ml in PBS, the plates were then blocked, FAP or BSA were diluted to a concentration of 2 μg/ml in PBS and added to the plates to be captured. The binding efficiency of the antibodies was then tested.
The EC50 values were estimated by a non-linear regression using GraphPad Prism (San Diego, USA) software. […] The binding of NI-206.12G4 towards sFAP was not tested.

[2] = target: T1, recombinant human FAP (sFAP, FAP) versus CD26 and unrelated human antigens (A-N); experiment: binding specificity ELISA against FAP versus unrelated human antigens; conditions: detection antibody at 20, 4 and 0.8 nM
Description: A mouse anti-6×-histidine tag antibody (Clonetech) was coated at a concentration of 3 μg/ml in PBS to a 96 well ELISA plate, the plates were then blocked with 5% BSA in PBS, and enzymatically active recombinant human FAP with an N-terminus 6× histidine tag was added to the plates to be captured. The binding efficiency of NI-206.82C2, NI-206.18H2, NI-206.20A8 and NI-206.6D3 (at 20 nM, 4 nM, and 0.8 nM) against sFAP and of NI-206.18H2, NI-206.20A8 and NI-206.6D3 against FAP as well was then tested by 1 hour incubation, followed by washing with PBS and detection with an HRP-labelled goat anti-human antibody (Jackson Immunoresearch) using a colormetric assay. To assess NI-206.82C2, NI-206.18H2, NI-206.20A8 and NI-206.6D3 binding other targets, recombinant human CD26 (only in case of NI-206.82C2) and fourteen other unrelated recombinant human proteins (A-N) were individually added to a 96-well ELISA plate in triplicate, and the binding efficacy of NI-206.82C2 was evaluated. (FIG. 7A to D)

[3] = target: T3, BSA (Bos taurus, UniProt P02769); experiment: ELISA control binding to BSA; design: species or system bovine
T3 construct: purchased Sigma-Aldrich
T3 sequence (P02769 25-607): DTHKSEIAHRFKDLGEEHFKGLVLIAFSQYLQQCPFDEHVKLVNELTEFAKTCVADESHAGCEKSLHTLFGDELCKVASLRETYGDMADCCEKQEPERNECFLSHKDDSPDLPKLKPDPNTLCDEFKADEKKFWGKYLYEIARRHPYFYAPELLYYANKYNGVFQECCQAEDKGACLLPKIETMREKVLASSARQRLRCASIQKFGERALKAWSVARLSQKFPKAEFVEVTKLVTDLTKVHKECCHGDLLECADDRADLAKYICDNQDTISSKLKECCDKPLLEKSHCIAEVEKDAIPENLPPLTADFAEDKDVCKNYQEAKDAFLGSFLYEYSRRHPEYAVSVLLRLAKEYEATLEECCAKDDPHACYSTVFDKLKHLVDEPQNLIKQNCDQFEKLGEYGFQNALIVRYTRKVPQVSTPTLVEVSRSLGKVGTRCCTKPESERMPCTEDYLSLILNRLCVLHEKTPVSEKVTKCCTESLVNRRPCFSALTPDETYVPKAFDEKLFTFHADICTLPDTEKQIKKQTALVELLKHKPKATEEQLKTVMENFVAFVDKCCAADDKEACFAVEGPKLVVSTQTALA
Description: as §1

[4] = target: T2, rhFAP and FAP homologues (DPP4, DPP8, DPP9, POP/PREP); experiment: inhibition assays on SB9 oligopeptidase family enzymes; assay type: biochemical; conditions: 0-1000 nM antibody
Description: To determine the inhibitory ability of the antibody a black 96 well plate was blocked for 1 h with blocking buffer. NI-206.82C2 was pipetted at concentrations of 1000, 50, 10, 3.03, 1.01, 0.031, 0.001, and 0 nM in PBS into the according wells. The enzymes were added at a concentration of 0.2 nM. Finally, fluorgenic substrates were then added to the well at a concentration equal to the Michaelis constant (Km) and the velocity of the substrate cleavage was quantified by fluorescence at 360 nm excitation and 460 nm emission. H-Gly-Pro-AMC (AAT Bioquest, 13450) was used for DPP4, DPP9, and DPP8. Z-Gly-Pro-AMC (BaChem, 11145) was used to evaluate the activity of POP/PREP. FAP activity was assessed using DQ-gelatin (Life Technologies, D12054) and cleavage quantified at 495 nm excitation and 515 nm emission.

[5] = system: CT-26 syngeneic liver metastasis; experiment: immunofluorescence on murine CT-26 colorectal cancer tissue sections; design: species or system mouse; conditions: Cy5 labelled antibody, 10 μg/mL
Description: NI-206.82C2 was prelabelled with Cyanine 5 antibody labeling kit (Innova Biosciences, 342-0010), and sufficient antibody labelling was validated with a photospectrometer. Cryosections of mouse livers containing syngeneic CT-26 liver metastasis were allowed to dry for 30 min at room temperature the fixed for 10 min in 4% formalin in PBS. Slides were then washed 3 times for 5 minutes in PBS and blocked for 1 hr at room temperature with 5% bovine serum albumin in PBS.
The slides were then incubated overnight at 4° C. with staining solution containing DAPI at 0.5 μg/mL, and Alexa 547 phalloidin (Invitrogen) according to the manufacturer's instructions, and either Cy5 labelled NI-206.82C2 or a Cy5 labelled isotype-matched control antibody 3A1 at a concentration of 10 μg/mL, in blocking solution with 0.5% Triton X100. Slides were then washed 3 times in PBS, mounted in Lisbeth's mounting medium, and imaged with an SP8 confocal microscope (Leica Microsystems).

Row | Molecule | EC50 to the directly coated FAP peptides mixture (cFAP) [1] | colorimetric ELISA signal against FAP versus panel of unrelated human antigens [2] | binding to BSA [3] | inhibition selectivity for rhFAP over FAP homologues [4] | staining of murine CT-26 liver metastasis sections [5]
1 | B1 | did not show any binding | significantly greater |  |  | 
2 | B2 | did not show any binding | significantly greater | does not bind |  | 
3 | B3 | did not show any binding | significantly greater | does not bind | selectively inhibits rhFAP, but not FAP homologues | found around the perimeter
